{"source": "paper doi:10.1101/2024.10.01.616059", "about": "(bioRxiv, 2024)", "target": "the molecule itself", "experiment": "SEC; native whole-cell lysate of NIH3T3 AP1 KO cells on Yarra SEC-2000 (1 kDa to 300 kDa); fractions immunoblotted"}
{"protein": "phosphoribosyl pyrophosphate synthetase 2 (PRPS2), mouse, endogenous (enzyme, UniProt Q9CS42 1-318, looked up, PRPS2, mouse, endogenous protein of NIH3T3 cells and mouse tissue; also called P2; source: endogenous, NIH3T3 (parental and CRISPR knockout clones), native lysate; endogenous, C57BL/6 mouse kidney, native lysate) MPNIVLFSGSSHQDLSQRVADRLGLELGKVVTKKFSNQETSVEIGESVRGEDVYIIQSGCGEINDNLMELLIMINACKIASSSRVTAVIPCFPYARQDKKDKSRAPISAKLVANMLSVAGADHIITMDLHASQIQGFFDIPVDNLYAEPAVLQWIRENITEWRNCIIVSPDAGGAKRVTSIADRLNVEFALIHKERKKANEVDRMVLVGDVKDRVAILVDDMADTCGTICHAADKLLSAGATKVYAILTHGIFSGPAISRINSAAFEAVVVTNTIPQEDKMKHCSKIQVIDISMILAEAIRRTHNGESVSYLFSHVPL", "values": [{"measurement": "stoichiometry N", "result": 2}]}
